Measured values published in the supplement of paper PMC10567573.
± gives the standard deviation.

Assay: protein stability index of a GFP-peptide fusion (GPS, HEK-293T) (PSI 1-6); higher = more stable
[1] = treatment: DMSO, c terminus: a fixed tail appended
[2] = treatment: MLN4924 1 uM, 8 h, c terminus: a fixed tail appended
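Further: 24-mer peptide tiles fused after GFP, lentivirally expressed, FACS-sorted into six equal bins by GFP/DsRed ratio, decoded by Illumina sequencing, PSI is the read-weighted mean bin number.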

LSLVLGNVNVTLLSKQAKFAYKDE [TMEM120A]
protein stability index [1]: 2.59 ± 0.53
protein stability index [2]: 2.23 ± 0.28

HNGKIYISGGVHNGEYVPWLYCYD [KLHL14]
protein stability index [1]: 2.13 ± 0.68
protein stability index [2]: 2.32 ± 0.48

CAQMLPPNLSPHAPWNYHYHCPGS [TRAF3IP2]
protein stability index [1]: 2.56 ± 0.49
protein stability index [2]: 2.28 ± 0.29

QRAQAEVLQSVRELSRSRKLYGQR [FCHSD1]
protein stability index [1]: 3.76 ± 0.2
protein stability index [2]: 3.85 ± 0.36

LGVDTAETSYLEMAAGSEPESVEA [KMT2E]
protein stability index [1]: 5.27 ± 0.32
protein stability index [2]: 5.5 ± 0.42

MEYCLEVIKENDPSGFLQISDALI [TRIM9]
protein stability index [1]: 2.47 ± 0.29
protein stability index [2]: 2.69 ± 0.28

KYSLLKLTALLEKYTPSNKHGFSW [DLC1]
protein stability index [1]: 2.65 ± 0.42
protein stability index [2]: 2.6 ± 0.61

VVEEVRRRATSGGKWPQVLFFPEG [LPCAT4]
protein stability index [1]: 2.75 ± 0.31
protein stability index [2]: 3.24 ± 0.26

TMDGEGTLFQTESPQSGSILTEET [PBXIP1]
protein stability index [1]: 5.44 ± 0.066
protein stability index [2]: 5.43 ± 0.17

APFPNVSTSLLTSAGNRTHKARTR [ADAMTSL2]
protein stability index [1]: 4.68 ± 0.25
protein stability index [2]: 4.64 ± 0.29

HGVLSAEGFLFVFGGQDENKQTLS [GAN]
protein stability index [1]: 2.43 ± 0.27
protein stability index [2]: 2.65 ± 0.073

RKQKQELCEKFDYLYGILEERKNE [TRIM55]
protein stability index [1]: 3.72 ± 0.36
protein stability index [2]: 3.67 ± 0.54

YTAQQDQELDIKKNERLWLLDDSK [NCK2]
protein stability index [1]: 4.37 ± 0.27
protein stability index [2]: 4.65 ± 0.15

PAPAPLVPQDPDLEEEEEEEDLVL [ZBTB22]
protein stability index [1]: 5.59 ± 0.33
protein stability index [2]: 5.69 ± 0.2

PLPHPGAAPWPMAFPYQYPPPPHP [DVL3]
protein stability index [1]: 3.15 ± 0.28
protein stability index [2]: 3.41 ± 0.13

LFVTFLLIYMVTIMGNLLIIVTIM [OR4A15]
protein stability index [1]: 3.06 ± 0.41
protein stability index [2]: 3.29 ± 0.53

SLIEDLQRELEIPEQQVDMHDMLL [ZNF449]
protein stability index [1]: 3.56 ± 0.35
protein stability index [2]: 3.51 ± 0.34

ARGDAVCTACGSVLEDNIIVSEVQ [BRF1]
protein stability index [1]: 4.38 ± 0.19
protein stability index [2]: 4.34 ± 0.077

LFVLELEWVLSTGQDKQFAWHCSE [WDFY2]
protein stability index [1]: 2.99 ± 0.34
protein stability index [2]: 2.77 ± 0.72

REHKETCEMDWSDKMEAYNIDETC [TEKT4]
protein stability index [1]: 5.26 ± 0.19
protein stability index [2]: 5.14 ± 0.077

VSGDLTKEDIDLIDILWRQDIDLG [NFE2L1]
protein stability index [1]: 3.02 ± 0.78
protein stability index [2]: 3.58 ± 0.61

RGDSGRLGLGTRESHSCPQQVPMP [NEK8]
protein stability index [1]: 4.07 ± 0.18
protein stability index [2]: 4.19 ± 0.28

PPPPMQPTVPSAATSQPTPSQHSA [CCDC6]
protein stability index [1]: 5.23 ± 0.12
protein stability index [2]: 5.47 ± 0.18

SLFSLLIAAAVYIMDTVGNIWVCY [SLC19A2]
protein stability index [1]: 2.94 ± 0.41
protein stability index [2]: 3.03 ± 0.72

SQSETSSAVSTPSPVTRTRSLSAC [DLC1]
protein stability index [1]: 4.89 ± 0.23
protein stability index [2]: 4.87 ± 0.14

STNGEKTKSPCESNNKKNDEMQEV [SPANXN3]
protein stability index [1]: 5.53 ± 0.16
protein stability index [2]: 5.41 ± 0.19

MGQVLPVFAHCKEAPSTASSTPDS [RTN2]
protein stability index [1]: 4.67 ± 0.25
protein stability index [2]: 4.83 ± 0.23

IQLIKTNKKHIHSRSTLECAYRTH [SMG5]
protein stability index [1]: 2.38 ± 0.096
protein stability index [2]: 2.54 ± 0.1

HGPGHETPMTIPEFFRESVNRFGT [ACSBG2]
protein stability index [1]: 3.54 ± 0.29
protein stability index [2]: 3.6 ± 0.13

YENCLQALADVEVKYIVERTMLDF [NLN]
protein stability index [1]: 2.08 ± 0.28
protein stability index [2]: 2.22 ± 0.51

TNETNVNIPQMADTLFERATNSSW [SNAP91]
protein stability index [1]: 3.77 ± 0.11
protein stability index [2]: 3.99 ± 0.2

TEEQTRQERQGPAKPEVLSIQWPG [NECAB1]
protein stability index [1]: 5.07 ± 0.058
protein stability index [2]: 5.14 ± 0.15

STWSDPSVNISLDNLLPGMQPSKP [CLINT1]
protein stability index [1]: 4.3 ± 0.12
protein stability index [2]: 4.25 ± 0.099

SKLSLLLNDISRKSEGLSGRVLRK [TRIP13]
protein stability index [1]: 2.82 ± 0.28
protein stability index [2]: 2.82 ± 0.31

FIWFVCSLVYYGLTLSAGDLGGSI [SLC22A15]
protein stability index [1]: 3.46 ± 0.52
protein stability index [2]: 3 ± 0.78

DHWNNEKERILLVTDKTLLICKYD [TPRG1]
protein stability index [1]: 2.18 ± 0.32
protein stability index [2]: 2.47 ± 0.15

AAVKENQMTPTNLAVCLAPSLFHL [DLC1]
protein stability index [1]: 2.37 ± 0.06
protein stability index [2]: 2.61 ± 0.33

CAVMNVVFITILIIALIALSVGQY [CD69]
protein stability index [1]: 3.04 ± 0.34
protein stability index [2]: 2.47 ± 0.48

LQRLGELQSELAGVADFSATYLRC [INTS4]
protein stability index [1]: 2.72 ± 0.22
protein stability index [2]: 2.93 ± 0.34

RKSLFDDKAVEIEELTYIIKQDIN [STX5]
protein stability index [1]: 2.9 ± 0.18
protein stability index [2]: 2.76 ± 0.31

EFSRATAEKVNQDMCMKVPDDPEH [CRYL1]
protein stability index [1]: 5.62 ± 0.17
protein stability index [2]: 5.12 ± 0.75

GGSELGGWSLGRWTHDGIDINNNF [CPXM2]
protein stability index [1]: 3.06 ± 0.031
protein stability index [2]: 2.64 ± 0.054

FMEFYQDVKDWWLFGFYFCMPLVC [EDNRA]
protein stability index [1]: 3.155 ± 0.026
protein stability index [2]: 3.2 ± 0.56

PNCFRKDPDINMHPFFFALGKILS [FADS1]
protein stability index [1]: 2.1 ± 0.51
protein stability index [2]: 2.33 ± 0.5

NQQLRNELQLEQSRAANQEQRAND [CEP70]
protein stability index [1]: 5.48 ± 0.11
protein stability index [2]: 5.42 ± 0.24

NYGKILVEKNEHCIENNIDLQVNR [R3HDM1]
protein stability index [1]: 3.56 ± 0.33
protein stability index [2]: 3.75 ± 0.19

YPIIFVYYLRKGKKINSNQLENEQ [SPANXN3]
protein stability index [1]: 2.37 ± 0.33
protein stability index [2]: 2.14 ± 0.26

SRSENVLSRLSLMAMPNGFHEDGP [PSD2]
protein stability index [1]: 3.73 ± 0.17
protein stability index [2]: 3.87 ± 0.27

MQVIAIVLYLMMPIVNISEVLGPL [PHTF1]
protein stability index [1]: 3.08 ± 0.29
protein stability index [2]: 3.34 ± 0.38

ERDALEAVFRFWAGGEKGPQAFPM [DNAAF3]
protein stability index [1]: 2.5 ± 0.24
protein stability index [2]: 2.58 ± 0.28

DRKLHSRPRKLYKHSSTSSRIAKG [BTBD10]
protein stability index [1]: 3.81 ± 0.15
protein stability index [2]: 3.79 ± 0.25

GSTLAMLQRLKEQQFVIAGVLVED [ZBED1]
protein stability index [1]: 2.22 ± 0.46
protein stability index [2]: 2.1 ± 0.19

YTYRDYGHSSSRDDYPSRGYSDRD [RBMX]
protein stability index [1]: 3.94 ± 0.3
protein stability index [2]: 4.02 ± 0.26

GHLRGPEIRDWRGPQLEGEKDWGL [ZSWIM9]
protein stability index [1]: 3.66 ± 0.39
protein stability index [2]: 3.52 ± 0.47

DEISDHAKVLTLSDDLERTIEERV [EIF5]
protein stability index [1]: 5.16 ± 0.28
protein stability index [2]: 5.44 ± 0.11

IGVGLGFELQRLEFDLSPLNLDIG [AASDHPPT]
protein stability index [1]: 2.3 ± 0.55
protein stability index [2]: 2.29 ± 0.24

WYRPMYKAFRSDSSFNFFVFFFIF [SCAMP3]
protein stability index [1]: 2.94 ± 0.34
protein stability index [2]: 2.86 ± 0.54

AGGNSSSSAAMQSSCSSTSGGGGG [CCDC6]
protein stability index [1]: 5.08 ± 0.11
protein stability index [2]: 5.035 ± 0.022

ANSAFAVDLFKQLCEKEPLGNVLF [SERPINB5]
protein stability index [1]: 2.08 ± 0.29
protein stability index [2]: 2.47 ± 0.3

YEAQDGRGPDNALLEATGGAAGRS [KCTD10]
protein stability index [1]: 5.37 ± 0.34
protein stability index [2]: 5.41 ± 0.25

LLKCVRESDPSDPNKDMVVQLIDD [SRPK2]
protein stability index [1]: 4.6 ± 0.41
protein stability index [2]: 4.57 ± 0.079

RTCTAPLDRLKVLMQVHASRSNNM [SLC25A25]
protein stability index [1]: 2.68 ± 0.2
protein stability index [2]: 2.81 ± 0.21

ASSNVFSNFEQTQIQEFKEAFTLM [MYL5]
protein stability index [1]: 3.49 ± 0.18
protein stability index [2]: 3.42 ± 0.27

MEDSPLPDLRDIELKLGRKVPESL [LURAP1L]
protein stability index [1]: 4.68 ± 0.2
protein stability index [2]: 4.63 ± 0.23

IERMKQIYQQLSRYRGLGLLASVP [CRY1]
protein stability index [1]: 2.3 ± 0.49
protein stability index [2]: 2.36 ± 0.35

MCMVMRGVQKMNSKTVTSTMLGVF [GCH1]
protein stability index [1]: 2.31 ± 0.43
protein stability index [2]: 2.56 ± 0.44

NPKDCSENIEVKEGGLYFERRPVA [SPSB2]
protein stability index [1]: 4.68 ± 0.17
protein stability index [2]: 4.76 ± 0.058

LTALLEKYTPSNKHGFSWAVPKFM [DLC1]
protein stability index [1]: 2.6 ± 0.57
protein stability index [2]: 2.09 ± 0.2

YQLCHALRFLHENQLTHTDLKPEN [CLK3]
protein stability index [1]: 4.62 ± 0.23
protein stability index [2]: 4.76 ± 0.37

SSGSFCYCHPDSETDEDEEEGDEQ [GMCL1]
protein stability index [1]: 5.52 ± 0.17
protein stability index [2]: 5.39 ± 0.14

KRTIIPTLVEAIKEQDGREVDWEY [DFFB]
protein stability index [1]: 4.14 ± 0.11
protein stability index [2]: 4.36 ± 0.42

GTAFDAETDSEMNSQESRSDLEDM [SMG5]
protein stability index [1]: 5.63 ± 0.24
protein stability index [2]: 5.5 ± 0.49

LVTTGANVNETDDWGRTALHYAAA [ANKRD44]
protein stability index [1]: 3.34 ± 0.26
protein stability index [2]: 3.52 ± 0.15

LHDIFENKTDVVLILELVSGGELF [DAPK3]
protein stability index [1]: 1.87 ± 0.37
protein stability index [2]: 2.39 ± 0.58

SGRRNWCSYVVTRTISCHVQNGTY [EMID1]
protein stability index [1]: 2.12 ± 0.41
protein stability index [2]: 1.93 ± 0.37

LPRKRQSLRSSSSKLAQLTLEQIL [INTS3]
protein stability index [1]: 2.34 ± 0.19
protein stability index [2]: 2.44 ± 0.12

QDEEDMFMVVDLLLGGDLRYHLQQ [STK32A]
protein stability index [1]: 2.21 ± 0.18
protein stability index [2]: 2.1 ± 0.35

TEDVGVVCSDKRIPGFKFDNSLIN [LOXL2]
protein stability index [1]: 3.76 ± 0.28
protein stability index [2]: 3.75 ± 0.3

PSLRPRPASSISLPIGHLGCISLL [DMRTC1]
protein stability index [1]: 2.55 ± 0.35
protein stability index [2]: 2.85 ± 0.43

DLGGSIYANLALSGLIEIQSYPLC [SLC22A15]
protein stability index [1]: 3.02 ± 0.72
protein stability index [2]: 2.63 ± 0.76

DILPIHPPSGNSDLDPDAQNPML [BTBD10]
protein stability index (treatment: DMSO, c terminus: native): 5.46 ± 0.17
protein stability index (treatment: MLN4924 1 uM, 8 h, c terminus: native): 5.21 ± 0.22

SRSPSVEGSLWAVGTESQGRDWRH [PXN]
protein stability index [1]: 4.04 ± 0.11
protein stability index [2]: 4.05 ± 0.23

IYVIGDLDTGTNYDYVREFKRSTG [GAN]
protein stability index [1]: 2.18 ± 0.43
protein stability index [2]: 2.04 ± 0.43

HSEILKYFQSVTSNRWLMVKIFLI [STX5]
protein stability index [1]: 2.32 ± 0.36
protein stability index [2]: 2.4 ± 0.43

VTFKLDDGAISAHKPLLICSCEWM [RHOBTB1]
protein stability index [1]: 3.08 ± 0.33
protein stability index [2]: 2.56 ± 0.62

LIQNEYRNGGSLADAISENYRIMS [WEE1]
protein stability index [1]: 2.38 ± 0.31
protein stability index [2]: 2.5 ± 0.48

ILCNKTAYQEVFKPENISLRNKLR [SMG5]
protein stability index [1]: 2.46 ± 0.24
protein stability index [2]: 2.77 ± 0.23

FHIFRTLEVNRLMGKLLQQPNTYA [PKD2L1]
protein stability index [1]: 2.46 ± 0.68
protein stability index [2]: 2.5 ± 0.26

PGSLLCTVAASDPDTGDNARLTYS [PCDHGC5]
protein stability index [1]: 4.12 ± 0.29
protein stability index [2]: 4 ± 0.14
